Source: patent US20180273595A1

B1: RI-EIP1 retroinverso peptidomimetic (peptide)
peptide: GRRRQRRKKRGGTFLYPPL
modifications: not checked
B2: RI-EIP2 retroinverso peptidomimetic (peptide)
peptide: GRRRQRRKKRGGPLSGFSL
modifications: not checked

Biological target: T1, recombinant His-tagged full-length ERG, P11308
T1 chain: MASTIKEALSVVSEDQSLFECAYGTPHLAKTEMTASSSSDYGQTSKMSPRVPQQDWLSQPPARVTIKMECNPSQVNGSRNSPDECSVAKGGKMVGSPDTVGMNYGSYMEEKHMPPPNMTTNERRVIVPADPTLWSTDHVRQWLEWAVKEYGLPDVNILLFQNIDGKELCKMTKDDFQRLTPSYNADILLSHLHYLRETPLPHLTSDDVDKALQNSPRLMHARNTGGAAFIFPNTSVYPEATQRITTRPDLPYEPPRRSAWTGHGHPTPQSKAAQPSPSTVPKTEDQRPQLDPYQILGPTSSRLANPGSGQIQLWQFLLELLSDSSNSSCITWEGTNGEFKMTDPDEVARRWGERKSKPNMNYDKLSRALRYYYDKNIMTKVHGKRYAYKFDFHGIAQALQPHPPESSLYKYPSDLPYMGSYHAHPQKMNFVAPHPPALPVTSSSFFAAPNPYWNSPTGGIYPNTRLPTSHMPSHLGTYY
Assay: OctetRED BLI

Binder | Kd
B1 | 940 nM
B2 | 1280 nM
